Measured values as given in US10500249B2, “Compositions and methods for preventing or treating diseases, conditions, or processes characterized by aberrant fibroblast proliferation and extracellular matrix deposition” (MOERAE MATRIX, INC., priority 2014, dated 2019).

Key:
Test in all cases: Kinase Profiling Assay
Format in all cases: biochemical
Conditions in all cases: 100 μM
ZIPK (h) = ZIPK (h) (Homo sapiens, UniProt O43293)
Outline: (§1)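 Kinase inhibition by MK2 inhibitory peptides was profiled radiometrically, with substrate phosphorylation from labeled ATP read by scintillation after capture on a charged filter. Values are relative to 100% activity and measured in duplicate.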

BTK (h) = BTK (h) (Homo sapiens, UniProt Q06187)
Outline: as §1

Haspin (h) = biological target: T1, Haspin (h) (Homo sapiens, UniProt Q8TF76)
T1 construct: purchased Millipore
T1 sequence (Q8TF76 1-798): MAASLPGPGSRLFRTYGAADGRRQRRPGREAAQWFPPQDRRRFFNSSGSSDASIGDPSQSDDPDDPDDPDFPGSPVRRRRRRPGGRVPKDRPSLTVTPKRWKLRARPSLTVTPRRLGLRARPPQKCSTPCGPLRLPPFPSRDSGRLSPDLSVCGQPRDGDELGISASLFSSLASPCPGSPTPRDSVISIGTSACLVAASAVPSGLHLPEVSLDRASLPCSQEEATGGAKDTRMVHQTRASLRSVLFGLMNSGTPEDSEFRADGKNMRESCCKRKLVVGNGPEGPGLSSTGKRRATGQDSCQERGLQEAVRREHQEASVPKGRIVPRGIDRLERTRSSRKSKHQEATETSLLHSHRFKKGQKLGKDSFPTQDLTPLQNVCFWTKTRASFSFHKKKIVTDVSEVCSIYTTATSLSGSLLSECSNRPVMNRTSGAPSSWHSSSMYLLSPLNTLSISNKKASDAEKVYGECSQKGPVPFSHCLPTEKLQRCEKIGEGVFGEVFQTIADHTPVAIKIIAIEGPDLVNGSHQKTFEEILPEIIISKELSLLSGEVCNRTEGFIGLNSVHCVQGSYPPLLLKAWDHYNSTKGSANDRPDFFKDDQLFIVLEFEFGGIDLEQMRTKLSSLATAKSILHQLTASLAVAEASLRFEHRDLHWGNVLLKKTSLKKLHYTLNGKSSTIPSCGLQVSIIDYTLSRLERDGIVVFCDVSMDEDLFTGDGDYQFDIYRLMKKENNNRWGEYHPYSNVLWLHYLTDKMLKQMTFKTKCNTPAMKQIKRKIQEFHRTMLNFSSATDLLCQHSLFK
Outline: as §1

PKCβII (h) = biological target: T2, PKCβII (h) (Homo sapiens, UniProt P05771)
T2 construct: purchased Millipore
Outline: as §1

NEK3 (h) = biological target: T3, NEK3 (h) (Homo sapiens, UniProt P51956)
T3 construct: purchased Millipore
T3 sequence (P51956 1-506): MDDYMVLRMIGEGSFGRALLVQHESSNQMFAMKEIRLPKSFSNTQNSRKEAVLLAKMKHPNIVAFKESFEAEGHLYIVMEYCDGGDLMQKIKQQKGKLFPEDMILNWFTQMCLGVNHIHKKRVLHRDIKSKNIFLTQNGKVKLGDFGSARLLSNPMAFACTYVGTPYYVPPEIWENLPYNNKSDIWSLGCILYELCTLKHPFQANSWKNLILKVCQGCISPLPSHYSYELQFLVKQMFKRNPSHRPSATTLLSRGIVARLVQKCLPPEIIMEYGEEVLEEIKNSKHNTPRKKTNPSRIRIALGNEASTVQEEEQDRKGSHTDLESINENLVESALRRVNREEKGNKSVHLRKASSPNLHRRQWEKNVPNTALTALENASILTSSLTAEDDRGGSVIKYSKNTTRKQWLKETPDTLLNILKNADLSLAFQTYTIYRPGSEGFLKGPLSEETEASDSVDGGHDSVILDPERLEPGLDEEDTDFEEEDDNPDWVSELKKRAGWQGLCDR
Outline: as §1

p70S6K (h) = biological target: T4, p70S6K (h) (Homo sapiens, UniProt P23443)
T4 construct: purchased Millipore
Outline: as §1

PKCβI (h) = biological target: T5, PKCβI (h) (Homo sapiens, UniProt P05771)
T5 construct: purchased Millipore
Outline: as §1

FGFR2 (h) = FGFR2 (h) (Homo sapiens, UniProt P21802)
Outline: as §1

Fgr (h) = Fgr (h) (Homo sapiens, UniProt P09769)
Outline: as §1

IGF-1R (h), activated = biological target: T6, IGF-1R (h), activated (Homo sapiens, UniProt P08069)
T6 construct: purchased Millipore
Outline: as §1

Pim-2 (h) = biological target: T7, Pim-2 (h) (Homo sapiens, UniProt Q9P1W9)
T7 construct: purchased Millipore
Outline: as §1

JNK3 (h) = JNK3 (h) (Homo sapiens, UniProt P53779)
Outline: as §1

Flt3 (h) = Flt3 (h) (Homo sapiens, UniProt P36888)
Outline: as §1

Met(Y1248H) (h) = Met(Y1248H) (h) (Homo sapiens, UniProt P08581, Y1230H)
Outline: as §1

Syk (h) = Syk (h) (Homo sapiens, UniProt P43405)
Outline: as §1

PASK (h) = biological target: T8, PASK (h) (Homo sapiens, UniProt Q96RG2)
T8 construct: purchased Millipore
Outline: as §1

CDK5/p25 (h) = biological target: T9, CDK5/p25 (h) (Homo sapiens, UniProt Q00535)
T9 construct: purchased Millipore
Outline: as §1

PKBβ (h) = biological target: T10, PKBβ (h) (Homo sapiens, UniProt P31751)
T10 construct: purchased Millipore
Outline: as §1

LIMK1 (h) = LIMK1 (h) (Homo sapiens, UniProt P53667)
Outline: as §1

CDK2/cyclinE (h) = biological target: T11, CDK2/cyclinE (h) (Homo sapiens, UniProt P24941)
T11 construct: purchased Millipore
Outline: as §1

BTK(R28H) (h) = BTK(R28H) (h) (Homo sapiens, UniProt Q06187, R28H)
Outline: as §1

T10 sequence (P31751 whole entry): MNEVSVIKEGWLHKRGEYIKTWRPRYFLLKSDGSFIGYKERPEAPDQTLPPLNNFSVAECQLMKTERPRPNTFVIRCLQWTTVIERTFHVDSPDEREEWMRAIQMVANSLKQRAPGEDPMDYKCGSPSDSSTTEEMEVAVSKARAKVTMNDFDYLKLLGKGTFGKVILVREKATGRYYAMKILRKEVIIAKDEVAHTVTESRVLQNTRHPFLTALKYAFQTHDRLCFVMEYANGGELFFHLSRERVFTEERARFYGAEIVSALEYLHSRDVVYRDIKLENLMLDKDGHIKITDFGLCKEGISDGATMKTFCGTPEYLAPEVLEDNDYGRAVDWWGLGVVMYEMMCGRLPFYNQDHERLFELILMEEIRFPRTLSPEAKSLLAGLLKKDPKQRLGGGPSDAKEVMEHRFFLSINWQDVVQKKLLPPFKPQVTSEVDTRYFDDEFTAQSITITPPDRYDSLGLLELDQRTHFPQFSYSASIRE
Sequence of LIMK1 (h) (P53667 whole entry): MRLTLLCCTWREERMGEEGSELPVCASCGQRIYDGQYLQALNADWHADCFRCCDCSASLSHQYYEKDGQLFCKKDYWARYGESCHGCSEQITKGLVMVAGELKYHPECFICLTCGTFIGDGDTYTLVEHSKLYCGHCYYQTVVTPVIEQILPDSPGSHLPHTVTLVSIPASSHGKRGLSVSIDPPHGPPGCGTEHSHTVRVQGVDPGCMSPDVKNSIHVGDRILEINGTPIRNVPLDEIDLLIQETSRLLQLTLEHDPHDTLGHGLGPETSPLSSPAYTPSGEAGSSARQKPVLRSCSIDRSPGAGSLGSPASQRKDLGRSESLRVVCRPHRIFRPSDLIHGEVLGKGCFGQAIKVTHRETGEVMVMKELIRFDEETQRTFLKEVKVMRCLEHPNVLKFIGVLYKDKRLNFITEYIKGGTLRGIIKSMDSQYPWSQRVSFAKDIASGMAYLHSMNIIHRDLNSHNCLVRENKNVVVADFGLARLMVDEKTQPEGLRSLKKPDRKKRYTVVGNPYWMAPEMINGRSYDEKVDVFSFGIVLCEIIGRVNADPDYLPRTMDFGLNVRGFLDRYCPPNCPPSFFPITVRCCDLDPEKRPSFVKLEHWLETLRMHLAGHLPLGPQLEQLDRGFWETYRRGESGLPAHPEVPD
T5 sequence (P05771 whole entry): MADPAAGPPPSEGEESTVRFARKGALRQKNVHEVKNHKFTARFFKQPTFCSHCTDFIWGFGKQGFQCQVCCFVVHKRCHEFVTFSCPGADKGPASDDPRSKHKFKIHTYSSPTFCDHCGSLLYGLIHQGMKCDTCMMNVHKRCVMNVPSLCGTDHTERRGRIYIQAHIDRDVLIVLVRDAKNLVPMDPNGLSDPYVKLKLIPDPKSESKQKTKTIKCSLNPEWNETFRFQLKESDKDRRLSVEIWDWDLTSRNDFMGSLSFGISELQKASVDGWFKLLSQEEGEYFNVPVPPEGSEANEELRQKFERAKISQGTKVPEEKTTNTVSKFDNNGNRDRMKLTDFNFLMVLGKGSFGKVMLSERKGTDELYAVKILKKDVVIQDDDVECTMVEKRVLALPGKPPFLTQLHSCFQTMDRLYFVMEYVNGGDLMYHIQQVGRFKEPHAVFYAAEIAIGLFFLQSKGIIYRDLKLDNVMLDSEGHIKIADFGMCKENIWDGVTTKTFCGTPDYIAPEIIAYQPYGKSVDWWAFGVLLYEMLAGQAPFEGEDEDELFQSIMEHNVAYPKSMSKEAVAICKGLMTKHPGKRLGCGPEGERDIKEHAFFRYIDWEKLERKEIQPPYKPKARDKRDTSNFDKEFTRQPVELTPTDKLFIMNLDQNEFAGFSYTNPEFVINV
Sequence of ZIPK (h) (O43293 whole entry): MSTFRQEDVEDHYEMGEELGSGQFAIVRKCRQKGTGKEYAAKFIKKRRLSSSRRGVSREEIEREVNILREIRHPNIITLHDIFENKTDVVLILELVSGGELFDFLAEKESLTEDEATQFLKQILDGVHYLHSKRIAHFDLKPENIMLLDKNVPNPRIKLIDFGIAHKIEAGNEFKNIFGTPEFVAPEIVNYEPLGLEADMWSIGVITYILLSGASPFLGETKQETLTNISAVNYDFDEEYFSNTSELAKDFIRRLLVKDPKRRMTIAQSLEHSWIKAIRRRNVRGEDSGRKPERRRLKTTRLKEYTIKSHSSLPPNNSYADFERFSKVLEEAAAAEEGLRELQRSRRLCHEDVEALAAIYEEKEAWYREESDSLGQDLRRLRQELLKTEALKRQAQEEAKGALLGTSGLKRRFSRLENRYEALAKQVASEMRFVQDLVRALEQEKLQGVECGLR
T4 sequence (P23443 whole entry): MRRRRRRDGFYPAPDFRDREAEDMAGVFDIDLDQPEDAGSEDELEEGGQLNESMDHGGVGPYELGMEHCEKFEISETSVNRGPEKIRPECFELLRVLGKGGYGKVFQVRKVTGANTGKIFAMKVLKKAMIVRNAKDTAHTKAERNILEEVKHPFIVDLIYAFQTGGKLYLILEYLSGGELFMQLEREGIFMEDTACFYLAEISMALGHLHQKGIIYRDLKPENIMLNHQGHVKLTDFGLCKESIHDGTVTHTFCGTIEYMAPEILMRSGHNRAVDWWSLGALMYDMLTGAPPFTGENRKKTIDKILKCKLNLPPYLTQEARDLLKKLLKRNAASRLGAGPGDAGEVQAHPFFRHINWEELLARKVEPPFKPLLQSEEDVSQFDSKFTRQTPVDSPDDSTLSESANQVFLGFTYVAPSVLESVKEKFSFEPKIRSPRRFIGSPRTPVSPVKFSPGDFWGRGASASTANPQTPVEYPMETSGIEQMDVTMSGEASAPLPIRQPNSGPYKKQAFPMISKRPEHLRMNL
T7 sequence (Q9P1W9 whole entry): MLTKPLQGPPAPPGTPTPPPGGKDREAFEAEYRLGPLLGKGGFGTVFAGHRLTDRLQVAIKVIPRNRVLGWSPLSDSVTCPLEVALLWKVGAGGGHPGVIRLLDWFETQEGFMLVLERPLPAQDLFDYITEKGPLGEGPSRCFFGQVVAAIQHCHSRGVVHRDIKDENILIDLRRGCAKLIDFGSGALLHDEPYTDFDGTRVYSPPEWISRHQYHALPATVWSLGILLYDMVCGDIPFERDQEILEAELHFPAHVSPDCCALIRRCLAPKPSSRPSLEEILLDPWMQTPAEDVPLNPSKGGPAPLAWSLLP
Sequence of BTK(R28H) (h) (Q06187 whole entry R28H): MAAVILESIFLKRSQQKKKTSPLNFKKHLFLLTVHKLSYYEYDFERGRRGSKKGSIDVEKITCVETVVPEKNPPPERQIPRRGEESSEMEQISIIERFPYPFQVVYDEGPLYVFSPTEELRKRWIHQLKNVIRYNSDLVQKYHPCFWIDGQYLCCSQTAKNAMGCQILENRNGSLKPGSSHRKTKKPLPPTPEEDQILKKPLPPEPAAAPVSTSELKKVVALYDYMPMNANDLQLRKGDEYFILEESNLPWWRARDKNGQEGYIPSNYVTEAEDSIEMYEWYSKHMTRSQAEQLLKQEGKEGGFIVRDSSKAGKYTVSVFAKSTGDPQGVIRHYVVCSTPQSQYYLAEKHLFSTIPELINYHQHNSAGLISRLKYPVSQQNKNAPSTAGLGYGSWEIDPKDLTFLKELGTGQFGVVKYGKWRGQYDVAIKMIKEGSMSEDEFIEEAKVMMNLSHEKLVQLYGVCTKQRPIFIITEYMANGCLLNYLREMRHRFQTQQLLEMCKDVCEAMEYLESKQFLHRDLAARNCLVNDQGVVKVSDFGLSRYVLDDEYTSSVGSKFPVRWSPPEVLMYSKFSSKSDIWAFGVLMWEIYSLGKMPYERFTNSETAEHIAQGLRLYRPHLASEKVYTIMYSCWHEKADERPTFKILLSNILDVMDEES
Sequence of BTK (h) (Q06187 whole entry): as the sequence (Q06187 whole entry R28H) above, with H28R counted along it
Sequence of JNK3 (h) (P53779 whole entry): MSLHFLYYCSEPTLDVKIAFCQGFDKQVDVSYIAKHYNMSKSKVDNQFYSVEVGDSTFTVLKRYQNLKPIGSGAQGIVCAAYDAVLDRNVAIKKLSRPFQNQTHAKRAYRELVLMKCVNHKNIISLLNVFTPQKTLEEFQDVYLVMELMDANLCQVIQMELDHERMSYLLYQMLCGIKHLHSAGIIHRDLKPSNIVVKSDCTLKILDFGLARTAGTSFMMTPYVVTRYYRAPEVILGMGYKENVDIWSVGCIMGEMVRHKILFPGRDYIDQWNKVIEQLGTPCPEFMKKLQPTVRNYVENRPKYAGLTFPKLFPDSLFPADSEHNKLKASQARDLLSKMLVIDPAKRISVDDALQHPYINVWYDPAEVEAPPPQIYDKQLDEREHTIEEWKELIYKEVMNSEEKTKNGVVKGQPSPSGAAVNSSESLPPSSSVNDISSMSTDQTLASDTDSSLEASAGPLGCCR
T2 sequence (P05771 1-673 isoform P05771-2): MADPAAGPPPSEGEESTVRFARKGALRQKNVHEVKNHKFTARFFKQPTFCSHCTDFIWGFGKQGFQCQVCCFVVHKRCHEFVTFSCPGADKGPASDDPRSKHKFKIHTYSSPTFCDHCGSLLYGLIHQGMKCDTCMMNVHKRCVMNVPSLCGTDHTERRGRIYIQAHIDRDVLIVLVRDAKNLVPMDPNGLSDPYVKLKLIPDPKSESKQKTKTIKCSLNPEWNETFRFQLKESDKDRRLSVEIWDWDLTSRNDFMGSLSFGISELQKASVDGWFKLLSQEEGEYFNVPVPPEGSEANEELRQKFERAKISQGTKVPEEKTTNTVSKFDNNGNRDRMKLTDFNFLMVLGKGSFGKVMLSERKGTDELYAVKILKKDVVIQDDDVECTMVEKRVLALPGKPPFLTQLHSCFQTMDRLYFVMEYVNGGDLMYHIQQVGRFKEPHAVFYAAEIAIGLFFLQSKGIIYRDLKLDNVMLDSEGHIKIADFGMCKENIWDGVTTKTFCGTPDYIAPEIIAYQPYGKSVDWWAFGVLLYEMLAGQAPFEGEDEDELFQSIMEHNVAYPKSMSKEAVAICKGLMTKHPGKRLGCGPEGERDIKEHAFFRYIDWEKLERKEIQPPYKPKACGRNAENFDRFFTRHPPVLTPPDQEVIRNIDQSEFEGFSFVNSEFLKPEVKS

Sequence | % activity (ZIPK (h)) [%] | % activity (BTK (h)) [%] | % activity (Haspin (h)) [%] | % activity (PKCβII (h)) [%] | % activity (NEK3 (h)) [%] | % activity (p70S6K (h)) [%] | % activity (PKCβI (h)) [%] | % activity (FGFR2 (h)) [%] | % activity (Fgr (h)) [%] | % activity (IGF-1R (h), activated) [%] | % activity (Pim-2 (h)) [%] | % activity (JNK3 (h)) [%] | % activity (Flt3 (h)) [%] | % activity (Met(Y1248H) (h)) [%] | % activity (Syk (h)) [%] | % activity (PASK (h)) [%] | % activity (CDK5/p25 (h)) [%] | % activity (PKBβ (h)) [%] | % activity (LIMK1 (h)) [%] | % activity (CDK2/cyclinE (h)) [%] | other results
YARAAARQARAKALNRQLGVA (Mammalian) [MMI-0200] | 67 | 100 | 71 | 100 | 100 | 84 | 98 | 73 | 71 | 94 | 74 | 90 | 99 | 153 | 36 | 60 | 97 | 250 |  |  | 
HRRIKAWLKKIKALARQLGVAA (Mammalian) [MMI-0500] | 1 | 18 | 25 | 3 | 20 | 3 | 1 | 12 |  | 45 | 46 | 171 | 17 | 126 | 5 | 9 | 66 | 21 | 87 | 19 | % activity (BTK(R28H) (h)): 10%
FAKLAARLYRKALARQLGVAA [MMI-0300] | 28 |  | 48 | 82 | 92 | 35 | 78 | 14 | 60 | 80 | 76 | 89 | 84 |  | 24 | 29 | 89 | 84 | 88 | 94 | % activity (BTK(R28H) (h)): 74%
KAFAKLAARLYRKALARQLGVAA [MMI-0400] | 13 | 94 | 36 | 75 | 85 | 33 | 78 | 18 | 47 | 77 | 92 | 70 | 18 | 63 | 9 | 28 | 92 | 98 | 92 | 83 | % activity (BTK(R28H) (h)): 24%
